From US7553630

Tests used:
[1] = system: peptide 1 (19 kDa) from plasmin digestion of CHO-derived human MI
[2] = system: peptide 3 (13.5 kDa) from plasmin digestion of CHO-derived human MI
[3] = molecular target: type I collagenase in activated conditioned medium from TPA-treated rabbit synovial fibroblasts (rabbit) (UniProt P13943); assay: cell-based or functional assay
[4] = molecular target: E. coli-derived recombinant human metalloproteinase inhibitor (MI)
[5] = molecular target: CHO cell-derived recombinant human metalloproteinase inhibitor (MI)

Chain of peptide 3 (13.5 kDa) from plasmin digestion of CHO-derived human MI (chain, as listed by the source): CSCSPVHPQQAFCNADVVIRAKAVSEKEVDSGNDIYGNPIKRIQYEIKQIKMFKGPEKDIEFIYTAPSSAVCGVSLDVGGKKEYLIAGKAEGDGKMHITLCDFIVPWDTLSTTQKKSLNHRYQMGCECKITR

With “gelatinase(s) in activated conditioned medium from TPA-treated rabbit synovial fibroblasts” as the molecule, how does the “SDS-gelatin PAGE of a plasmin digest of MI” value [1] read?
The value was “These peptides retained their anticollagenase activity as shown by the SDS-gelatin PAGE”.

And the “SDS-gelatin PAGE of a plasmin digest of MI” value [2]?
The value was “These peptides retained their anticollagenase activity as shown by the SDS-gelatin PAGE”.

How did the Specific activity (units/mg), radiolabeled collagen film collagenase inhibition assay [3] turn out when “bovine peak II-derived metalloproteinase inhibitor (from UniProt P20414 24-207)” was run?
The Specific activity (units/mg), radiolabeled collagen film collagenase inhibition assay was 1780 units/mg.

B1: type I collagenase in activated conditioned medium from TPA-treated rabbit synovial fibroblasts (protein)
chain: FVLTPGNPRWEQTHLTYRIENYTPDLSRADVDNAIEKAFQLWSNVTPLTFTKVSKGQADIMISFVRGDHRDNSPFDGPEGQLAHAFQPGLGIGGDVHFDEDDRWTKDFRNYNLYRVAAHELGHSLGLSHSTDIGALMYPNYMFSGDVQLAQDDIDGIQAIYGPSQNPSQPVGPQTPKVCDSKLTFDAITTIRGEIMFFKDRFYMRANPYYSEVELNFISVFWPHLPNGLQAAYEVAHRDEILFFKGNKYWTVQGQNELPGYPKDIHSSFGFPRSVNHIDAAVSEEDTGKTYFFVANKYWRYDEYKRSMDAGYPKMIEYDFPGIGNKVDAVFKKDGFFYFFHGTRQYKFDPKTKRILTLQKANSWFNCRKN
B1 was tested. Which “SDS-PAGE and autoradiography of specific collagen cleavage; MI at about 2 µg/ml” value [4] did it give?
Its value is “also inhibited the specific collagen cleavage characteristic of mammalian collagenases”.

B2: rabbit fibroblast interstitial collagenase (42-kDa activated enzyme, APMA-activated) (protein)
chain: FVLTPGNPRWEQTHLTYRIENYTPDLSRADVDNAIEKAFQLWSNVTPLTFTKVSKGQADIMISFVRGDHRDNSPFDGPEGQLAHAFQPGLGIGGDVHFDEDDRWTKDFRNYNLYRVAAHELGHSLGLSHSTDIGALMYPNYMFSGDVQLAQDDIDGIQAIYGPSQNPSQPVGPQTPKVCDSKLTFDAITTIRGEIMFFKDRFYMRANPYYSEVELNFISVFWPHLPNGLQAAYEVAHRDEILFFKGNKYWTVQGQNELPGYPKDIHSSFGFPRSVNHIDAAVSEEDTGKTYFFVANKYWRYDEYKRSMDAGYPKMIEYDFPGIGNKVDAVFKKDGFFYFFHGTRQYKFDPKTKRILTLQKANSWFNCRKN
How did the “SDS-PAGE and autoradiography of 14C type I collagen cleavage products; 4.6 pmol MI, 2.1 pmol collagenase” value [5] turn out when B2 was run?
Its value is “The initial cleavage of the collagen as well as its further degradation were completely blocked by recombinant human MI”.

B3: human plasmin (protein)
chain: KVYLSECKTGNGKNYRGTMSKTKNGITCQKWSSTSPHRPRFSPATHPSEGLEENYCRNPDNDPQGPWCYTTDPEKRYDYCDILECEEECMHCSGENYDGKISKTMSGLECQAWDSQSPHAHGYIPSKFPNKNLKKNYCRNPDRELRPWCFTTDPNKRWELCDIPRCTTPPPSSGPTYQCLKGTGENYRGNVAVTVSGHTCQHWSAQTPHTHNRTPENFPCKNLDENYCRNPDGKRAPWCHTTNSQVRWEYCKIPSCDSSPVSTEQLAPTAPPELTPVVQDCYHGDGQSYRGTSSTTTTGKKCQSWSSMTPHRHQKTPENYPNAGLTMNYCRNPDADKGPWCFTTDPSVRWEYCNLKKCSGTEASVVAPPPVVLLPDVETPSEEDCMFGNGKGYRGKRATTVTGTPCQDWAAQEPHRHSIFTPETNPRAGLEKNYCRNPDGDVGGPWCYTTNPRKLYDYCDVPQCAAPSFDCGKPQVEPKKCPGRVVGGCVAHPHSWPWQVSLRTRFGMHFCGGTLISPEWVLTAAHCLEKSPRPSSYKVILGAHQEVNLEPHVQEIEVSRLFLEPTRKDIALLKLSSPAVITDKVIPACLPSPNYVVADRTECFITGWGETQGTFGAGLLKEAQLPVIENKVCNRYEFLNGRVQSTELCAGHLAGGTDSCQGDSGGPLVCFEKDKYILQGVTSWGLGCARPNKPGVYVRVSRFVTWIEGVMRNN
Which “plasmin conversion of the 52-kDa proenzyme to the 46-kDa intermediate (SDS-PAGE)” value [5] does the source give for B3 here?
The value was “The addition of MI had no effect on the conversion of the 52-kDa proenzyme to the 46-kDa intermediate (lane 4)”.

B4: plasmin-treated rabbit fibroblast interstitial procollagenase (46-kDa intermediate) (protein)
chain: GNGLAVEKLKQMQEFFGLKVTGKPDAETLKMMKQPRCGVPDVAQFVLTPGNPRWEQTHLTYRIENYTPDLSRADVDNAIEKAFQLWSNVTPLTFTKVSKGQADIMISFVRGDHRDNSPFDGPEGQLAHAFQPGLGIGGDVHFDEDDRWTKDFRNYNLYRVAAHELGHSLGLSHSTDIGALMYPNYMFSGDVQLAQDDIDGIQAIYGPSQNPSQPVGPQTPKVCDSKLTFDAITTIRGEIMFFKDRFYMRANPYYSEVELNFISVFWPHLPNGLQAAYEVAHRDEILFFKGNKYWTVQGQNELPGYPKDIHSSFGFPRSVNHIDAAVSEEDTGKTYFFVANKYWRYDEYKRSMDAGYPKMIEYDFPGIGNKVDAVFKKDGFFYFFHGTRQYKFDPKTKRILTLQKANSWFNCRKN
Which “conversion of the 46-kDa intermediate to the 42-kDa active enzyme at 37° C. (SDS-PAGE); 27 pmol MI, 16 pmol procollagenase” value [5] does the source give for B4 here?
The value was “the conversion of the 46-kDa intermediate to the 42-kDa active enzyme which should have occurred at 37 °C was completely blocked by MI”.
